Data from patent US7309594.

Tested on: Protein Kinase Bα/AKT1 catalytic domain (SEQ ID NO:3, tag removed) before PDK1 treatment
Sequence (chain, as listed by the source): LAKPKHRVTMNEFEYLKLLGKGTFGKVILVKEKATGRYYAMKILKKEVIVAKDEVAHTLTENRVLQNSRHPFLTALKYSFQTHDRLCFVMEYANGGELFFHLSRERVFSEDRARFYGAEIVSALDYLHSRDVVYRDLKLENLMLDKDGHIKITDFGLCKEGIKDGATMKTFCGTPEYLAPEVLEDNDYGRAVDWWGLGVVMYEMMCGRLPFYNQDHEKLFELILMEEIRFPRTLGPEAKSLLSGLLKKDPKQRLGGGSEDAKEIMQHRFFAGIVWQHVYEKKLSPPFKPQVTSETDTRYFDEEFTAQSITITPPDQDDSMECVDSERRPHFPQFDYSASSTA

## PDK1 kinase
  phosphorylation of AKT1 (mass spectrometry): Following 120 minute incubation with PDK1, AKT1 was converted into a mixture of mono and double phosphorylated proteins
